Measurements from patent USRE49495E1, “Binding polypeptides having a mutated scaffold” (Affibody AB, priority 2013, dated 2023).

Assays:
human HER2-Fc = biological target: T1, human HER2-Fc (Homo sapiens, UniProt P04626); assay: Biacore 2000 comparative kinetic analysis, HER2; format: binding; conditions: for KDInv/KDOrig: original set to 1.0; for KD(2w)/KD(0): KD after stability test relative to KD before
T1 construct: Fc; purchased R&D Systems 1129-ER-050
Experimental: (§1) A set of polypeptides showing improved stability properties in Example 12 were further assessed in terms of preserved binding capacities to their targets after introduction of alterations in the scaffold, as well as after having been subjected to the stability test, i.e. incubated at 37° C. for 2 weeks. Comparative kinetic constants (kon and koff) and affinities (KD) were determined using a Biacore 2000 instrument. The target proteins human HER2-Fc (R&D Systems, cat. no. 1129-ER-050), human PDGF-Rβ (R&D Systems, cat. no. 385-PR-100/CF), human FcRn (Biorbyt, cat. no. orb 84388) and human CAIX (R&D Systems, cat. no. 2188-CA), respectively, were immobilized on the carboxylated dextran layer surface of CM5 chips (GE Healthcare). The immobilization was performed using amine coupling chemistry according to the manufacturer's protocol and using HBS-EP as running buffer. One flow cell surface on the chip was activated and deactivated for use as blank during analyte injections. The immobilization level of target protein on the respective surface was approximately 850 RU for HER2, 2200 RU for PDGF-Rβ, 750 for FcRn and 580 RU for CAIX.
(§2) HBS-EP (HER2, PDGF-Rβ, CAIX) or a pH 6.0 Na2HPO4/citric acid buffer (126 mM Na2HPO4, 37 mM citric acid) (FcRn) was used as running buffer and the flow rate was 30 μl/min in the binding experiments performed at 25° C. as further described below.
The Z variants Z02891 (SEQ ID NO:27), Z17341 (SEQ ID NO:28), and Z17342 (SEQ ID NO:29) targeting HER2 were diluted in running buffer to final concentrations of 3.33, 10, 30 and 90 nM and injected for 5 minutes, followed by 30 minutes of dissociation in running buffer. Regeneration by four pulses alternating between 10 mM HCl and 10 mM NaOH followed by 5 min equilibration in running buffer was applied after each analyte injection.
(§3) Kinetic constants were calculated from the sensorgrams using the Langmuir 1:1 model (HER2, FcRn, CAIX) or the 1:1 binding with mass transfer model (PDGF-Rβ) of the BiaEvaluation software 4.1 (GE Healthcare). Curves of the blank surface were subtracted from the curves of the ligand surfaces and the data from the buffer cycles were subtracted from the data of the test-sample cycles to correct for any drift in signal.

[1] = Circular dichroism, variable temperature measurement (Tm) and spectra before and after heating; format: physicochemical; conditions: His6-tagged, 0.5 mg/ml in PBS, CD at 221 nm, 20 to 90° C.
Experimental: Circular dichroism (CD) analysis was carried out to determine the melting temperatures (Tm) and assess potential changes in the secondary structure of the inventive polypeptides as a result of the amino acid substitutions.
Purified His6-tagged Z variants were diluted to 0.5 mg/ml in PBS. For each diluted Z variant, a CD spectrum at 250-195 nm was recorded at 20° C. A variable temperature measurement (VTM) was performed to determine the Tm. In the VTM, the absorbance was measured at 221 nm while the temperature was raised from 20 to 90° C., with a temperature slope of 5° C./min. After the VTM, a second CD spectrum at 250-195 nm was recorded at 20° C. The CD measurements were performed on a Jasco J-810 spectropolarimeter (Jasco Scandinavia AB) using a cell with an optical path-length of 1 mm.

human PDGF-Rβ = biological target: T2, human PDGF-Rβ (Homo sapiens, UniProt P09619); assay: Biacore 2000 comparative kinetic analysis, PDGF-Rβ; format: binding; conditions: for KDInv/KDOrig: original set to 1.0
T2 construct: purchased R&D Systems 385-PR-100/CF
T2 sequence (P09619 with tags, fused parts or gaps limits assumed): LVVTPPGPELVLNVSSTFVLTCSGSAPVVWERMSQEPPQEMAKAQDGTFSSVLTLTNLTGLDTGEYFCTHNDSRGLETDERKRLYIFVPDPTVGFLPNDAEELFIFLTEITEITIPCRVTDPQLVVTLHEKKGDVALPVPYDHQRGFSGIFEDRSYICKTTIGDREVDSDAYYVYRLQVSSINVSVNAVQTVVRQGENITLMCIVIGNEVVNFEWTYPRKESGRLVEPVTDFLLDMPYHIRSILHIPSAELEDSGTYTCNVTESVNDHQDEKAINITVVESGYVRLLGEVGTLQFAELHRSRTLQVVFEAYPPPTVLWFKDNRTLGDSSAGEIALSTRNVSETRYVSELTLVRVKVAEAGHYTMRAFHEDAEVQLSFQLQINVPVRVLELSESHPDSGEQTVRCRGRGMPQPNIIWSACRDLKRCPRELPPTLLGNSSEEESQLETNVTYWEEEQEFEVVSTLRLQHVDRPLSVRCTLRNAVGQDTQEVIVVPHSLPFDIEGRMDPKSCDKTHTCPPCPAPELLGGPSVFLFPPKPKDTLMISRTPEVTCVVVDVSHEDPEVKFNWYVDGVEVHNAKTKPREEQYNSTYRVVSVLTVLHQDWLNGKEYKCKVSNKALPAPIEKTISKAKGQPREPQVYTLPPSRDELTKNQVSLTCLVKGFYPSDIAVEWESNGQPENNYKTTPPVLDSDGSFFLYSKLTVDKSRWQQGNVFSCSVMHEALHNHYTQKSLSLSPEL
Experimental: as §1, §2
The Z variants Z15805 (SEQ ID NO:30), Z17343 (SEQ ID NO:31), and Z17344 (SEQ ID NO:32) targeting PDGF-R13 were diluted in running buffer to final concentrations of 6.67, 20, 60 and 180 nM and injected for 5 minutes, followed by 20 minutes of dissociation in running buffer. Regeneration by three pulses of 10 mM NaOH followed by 5 min equilibration in running buffer was applied after each analyte injection.
as §3

human FcRn = biological target: T3, human FcRn (Homo sapiens, UniProt P55899); assay: Biacore 2000 comparative kinetic analysis, FcRn; format: binding; conditions: for KDInv/KDOrig: original set to 1.0
T3 construct: purchased Biorbyt orb 84388
T3 sequence (P55899 24-297 limits assumed): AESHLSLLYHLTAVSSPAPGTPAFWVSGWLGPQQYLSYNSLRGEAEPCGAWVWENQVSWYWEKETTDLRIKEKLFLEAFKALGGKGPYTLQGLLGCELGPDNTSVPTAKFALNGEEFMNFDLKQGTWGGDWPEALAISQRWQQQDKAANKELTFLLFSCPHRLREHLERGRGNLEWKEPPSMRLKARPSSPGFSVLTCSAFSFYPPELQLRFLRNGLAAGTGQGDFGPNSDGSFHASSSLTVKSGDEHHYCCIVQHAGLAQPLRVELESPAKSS
T3 sequence (P61769 21-119 partner): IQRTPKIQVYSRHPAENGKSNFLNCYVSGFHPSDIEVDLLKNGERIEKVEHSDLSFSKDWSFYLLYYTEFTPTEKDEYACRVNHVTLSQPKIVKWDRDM
Experimental: Comparative kinetic constants (kon and koff) and affinities (KD) were determined using a Biacore 2000 instrument. The target proteins human HER2-Fc (R&D Systems, cat. no. 1129-ER-050), human PDGF-Rβ (R&D Systems, cat. no. 385-PR-100/CF), human FcRn (Biorbyt, cat. no. orb 84388) and human CAIX (R&D Systems, cat. no. 2188-CA), respectively, were immobilized on the carboxylated dextran layer surface of CM5 chips (GE Healthcare). The immobilization was performed using amine coupling chemistry according to the manufacturer's protocol and using HBS-EP as running buffer. One flow cell surface on the chip was activated and deactivated for use as blank during analyte injections.
as §2
Regeneration by three pulses of HBS-EP followed by 10 min equilibration in running buffer was applied after each analyte injection.
as §3

[2] = biological target: human FcRn (Biorbyt, cat. no. orb 84388) (human) (UniProt P55899); assay: SPR Biacore 2000, FcRn on CM5 chip, pH 6.0, 1:1 Langmuir; sample (2w) after 2 weeks at 37 C; reference Z10103 (2w)
[3] = biological target: human FcRn (Biorbyt, cat. no. orb 84388) (human) (UniProt P55899); assay: SPR Biacore 2000, FcRn on CM5 chip, pH 6.0, 1:1 Langmuir; KD after 2 weeks at 37 C against KD before
[4] = biological target: human FcRn (Biorbyt, cat. no. orb 84388) (human) (UniProt P55899); assay: SPR Biacore 2000, FcRn on CM5 chip, pH 6.0, 1:1 Langmuir; sample (0) before stability test
[5] = biological target: human FcRn (Biorbyt, cat. no. orb 84388) (human) (UniProt P55899); assay: SPR Biacore 2000, FcRn on CM5 chip, pH 6.0, 1:1 Langmuir; sample (2w) after 2 weeks at 37 C
[6] = biological target: human FcRn (Biorbyt, cat. no. orb 84388) (human) (UniProt P55899); assay: SPR Biacore 2000, FcRn on CM5 chip, pH 6.0, 1:1 Langmuir; sample (0) before stability test; reference Z10103 (0)
[7] = Accelerated stability study of C5 binding polypeptides, 2 weeks at 37° C., SDS-PAGE and Reversed Phase HPLC (RPC); format: physicochemical
[8] = Three month stability test at 37° C., RPC main peak
[9] = biological target: T4, human HER2-Fc (R&D Systems, cat. no. 1129-ER-050) (human, UniProt P04626 23-652); assay: SPR Biacore 2000, HER2-Fc on CM5 chip, 1:1 Langmuir; KD after 2 weeks at 37 C against KD before
T4 construct: Bought; also called human epidermal growth factor receptor 2; not shown: Fc part of the bought fusion protein

[10] = biological target: T4, human HER2-Fc (R&D Systems, cat. no. …); assay: SPR Biacore 2000, HER2-Fc on CM5 chip, 1:1 Langmuir; sample (0) before stability test
[11] = biological target: T4, human HER2-Fc (R&D Systems, cat. no. …); assay: SPR Biacore 2000, HER2-Fc on CM5 chip, 1:1 Langmuir; sample (0) before stability test; reference Z02891 (0)
[12] = biological target: T4, human HER2-Fc (R&D Systems, cat. no. …); assay: SPR Biacore 2000, HER2-Fc on CM5 chip, 1:1 Langmuir; sample (2w) after 2 weeks at 37 C; reference Z02891 (2w)
[13] = biological target: T4, human HER2-Fc (R&D Systems, cat. no. …); assay: SPR Biacore 2000, HER2-Fc on CM5 chip, 1:1 Langmuir; sample (2w) after 2 weeks at 37 C
[14] = (0) prior to stability test, comparative, not absolute
[15] = (2w) after 2 weeks at 37° C., comparative, not absolute
[16] = compared with original Z variant
[17] = KD after stability test relative to KD before
[18] = (0) prior to stability test, pH 6.0
[19] = (2w) after 2 weeks at 37° C., pH 6.0

## Z02891: original Z variant polypeptide targeting HER2, His6-tagged [reference compound]
Human HER2-Fc; (0) prior to stability test
  ka: 1.33e+06 M/s
  kd: 7.1e-05 s⁻¹
  KDInv/KDOrig: 1.0
Human HER2-Fc; [14]
  Kd: 0.054 nM
Human HER2-Fc; (2w) after 2 weeks at 37° C.
  ka: 1.15e+06 M/s
  kd: 7.19e-05 s⁻¹
  KDInv/KDOrig: 1.0
Human HER2-Fc; [15]
  Kd: 0.062 nM
Human HER2-Fc
  KD(2w)/KD(0): 1.17
[1]
  Tm (° C.): 70 °C

## Z17342: inventive HER2 binding Z variant; D36R, D37Q, S39E, N52S, D53E (AEAKYAKEMRNAYWEIALLPNLTNQQKRAFIRKLYRQPEQSSELLSEAKKLSESQAPK; Engineered HER2 binding Z variant)
Human HER2-Fc; (0) prior to stability test
  ka: 894000 M/s
  kd: 0.00157 s⁻¹
  KDInv/KDOrig: 33
Human HER2-Fc; [14]
  Kd: 1.8 nM
Human HER2-Fc; (2w) after 2 weeks at 37° C.
  ka: 649000 M/s
  kd: 0.0015 s⁻¹
  KDInv/KDOrig: 37
Human HER2-Fc; [15]
  Kd: 2.3 nM
Human HER2-Fc
  KD(2w)/KD(0): 1.31
Human HER2-Fc; [16]
  effect of scaffold substitutions on the affinity: more negative effect on the affinity
Human HER2-Fc; range of magnitude
  Kd: ~1 nM
[1]
  Tm (° C.): 62 °C

## Z17344: inventive PDGF-Rβ binding Z variant; D36R, D37Q, S39E, N52S, D53E (AEAKYAKELIEAAAEIDALPNLTRRQWNAFIKKLVRQPEQSSELLSEAKKLSESQAPK; Engineered PDGFRbeta binding Z variant)
[1]
  Tm (° C.): 42 °C
Human PDGF-Rβ; (0) prior to stability test
  ka: 5.15e+07 M/s
  kd: 0.0616 s⁻¹
  KDInv/KDOrig: 6.19
Human PDGF-Rβ; [14]
  Kd: 1.2 nM
Human PDGF-Rβ; (2w) after 2 weeks at 37° C.
  ka: 5.62e+07 M/s
  kd: 0.0623 s⁻¹
  KDInv/KDOrig: 3.88
Human PDGF-Rβ; [15]
  Kd: 1.1 nM
Human PDGF-Rβ; [17]
  KD(2w)/KD(0): 0.93
Human PDGF-Rβ; [16]
  effect of scaffold substitutions on the affinity: more negative effect on the affinity
Human PDGF-Rβ; range of magnitude
  Kd: ~1 nM

## Z17348: inventive FcRn binding Z variant; D36R, D37Q, S39E, N52S, D53E (AEAKYAKEQDAAAHEIRWLPNLTFDQRVAFIHKLARQPEQSSELLSEAKKLSESQAPK; Engineered FcRn binding Z variant)
Human FcRn; (0) prior to stability test
  KDInv/KDOrig: 1.93
Human FcRn; [18]
  ka: 1.82e+06 M/s
  kd: 0.01 s⁻¹
Human FcRn; (0) prior to stability test, pH 6.0, comparative, not absolute
  Kd: 5.5 nM
Human FcRn; (2w) after 2 weeks at 37° C.
  KDInv/KDOrig: 3.46
Human FcRn; [19]
  ka: 1.28e+06 M/s
  kd: 0.00809 s⁻¹
Human FcRn; (2w) after 2 weeks at 37° C., pH 6.0, comparative, not absolute
  Kd: 6.3 nM
Human FcRn; [17]
  KD(2w)/KD(0): 1.14
Human FcRn; [16]
  effect of scaffold substitutions on the affinity: more negative effect on the affinity
Human FcRn; range of magnitude
  Kd: ~1 nM
[1]
  Tm (° C.): 44 °C

B1: Z17348 (designed binder)
chain: MGSSHHHHHHLQAEAKYAKEQDAAAHEIRWLPNLTFDQRVAFIHKLARQPEQSSELLSEAKKLSESQAPK
[2]
  KDInv/KDOrig: 3.46
[3]
  KD(2w)/KD(0): 1.14
[4]
  Kd: 5.5 nM
  koff: 0.01 s⁻¹
  kon: 1.82e+06 M⁻¹ s⁻¹
[5]
  Kd: 6.3 nM
  koff: 0.00809 s⁻¹
  kon: 1.28e+06 M⁻¹ s⁻¹
[6]
  KDInv/KDOrig: 1.93

B2: PSI0383: C5 binding polypeptide fused to albumin binding domain; ND to SE in positions 52-53 (protein)
chain: AEAKYAKEVLEAWDEIDRLPNLTIEQWLAFINKLDRQPEQSSELLSEAKKLSESQAPKVEGSLAEAKEAANAELDSYGVSDFYKRLIDKAKTVEGVEALKDAILAALP
modifications: Engineered C5 binding Z variant
[7]; RPC, after 2 weeks at 37° C., 25 mM NaP/125 mM NaCl pH 7.0
  Main peak (% of total protein): 91%
[7]; RPC, data from Example 2 repeated in Table 8
  2 weeks, 37° C. Main peak (% of total protein): 91%
[7]; conclusion from Table 1, 2 weeks at 37° C.
  stability when compared with PSI0242: increased stability
[8]
  stability after 3 months at 37° C. compared with PSI0242 after 2 weeks: higher proportion of protein in the original form
[8]; RPC
  3 months, 37° C. Main peak (% of total protein): 59%

B3: Z17342 (designed binder)
chain: MGSSHHHHHHLQAEAKYAKEMRNAYWEIALLPNLTNQQKRAFIRKLYRQPEQSSELLSEAKKLSESQAPK
[9]
  KD(2w)/KD(0): 1.31 ratio
[10]
  Kd: 1.8 nM
  koff: 0.00157 s⁻¹
  kon: 894000 M⁻¹ s⁻¹
[11]
  KDInv/KDOrig: 33 ratio
[12]
  KDInv/KDOrig: 37 ratio
[13]
  Kd: 2.3 nM
  koff: 0.0015 s⁻¹
  kon: 649000 M⁻¹ s⁻¹
